Test results: the nanobody polyreactivity screen of Harvey et al. (2022)

Test: yeast display, Sf9 membrane polyspecificity reagent, FACS + sequencing; frameworks hold sequencing errors
Method in brief: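 Sorting gates, low and high (top ~1%), were placed on anti-HA fluorescence to track expression and on streptavidin fluorescence to track reagent binding. A clone's polyreactivity label is taken from the gate it came out of. The reagent was 10% biotinylated, detergent-solubilized Sf9 membrane, applied for 1 hour at 4 °C to galactose-induced yeast display cells.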

Sequence | polyreactivity (PSR sort gate)
QVQLVESGGGLVQAGGSLRLSCAATGRIFHSNAMGWYRQAPGKERELVAVITKNGGSTYYADSVKGRFTISRDNAKNTVYLQMNSLKPEDTAVYYCNKRAQYTYYGRDYWGQGTQVTVSS | high polyreactivity
QVQLVESGGGLVQAGGSLRLSCAASGNTLDAYAMGWYRQAPGKERELVAAITSGGSTYYADSVKGRFTISRDNAKNTVYLQMNILKPEDTAVYYCNADGHPSDPGYDYWGQGTQVTVSS | low polyreactivity
QVHLVESGGGLVQAGGSLRLSCAASGRIFGAYTMGWYRQAPGKERELVAAIAGRTYYADSVKGRFTISRDNAKYTVYLQMNSLKPEETAVYYFADRYKSRNYDYWGQGTQVTVSS | high polyreactivity
QVQLVESGGGLVQAGGSLRLSCAASGRTVWGYGMGWYRQAPGKERELVATISSGGSTYYADSVKGRFTISRDNAKNTVYLQMNSLKPEDTAVYYCAARPPRTYWRYQSDYWGLGTQVTVSS | high polyreactivity
QVQLVESGGGLVQAGGSLRLSCAASGRTSLAYAMGWYRQAPGKERELVAAINTRGGSTYYADSVKGRFTISRDNAKNTVFLQINSLKPEDTAVYYCAKGPRLYFTRDKAHWKYDYWGQGTQVTVSS | low polyreactivity
QVQLVESGGGLVQAGGSLRLSCAASGLIFSRYAMGWYRQAPGKERELVAAISTRGGSTYYADSVKGRFTISRDTAKNTVYLQMNSLKPEDTAVYYCNADIYGTFRVGQGYDYWGQGTQVTVSS | high polyreactivity
QVQLVESGGGLVQAGGSLRLSCAASGRTFNPYVMGWYRQAPGKERELVARIRGSGTSTYYADSVKGRFTISRDNAKNTVYLQMNSLKPEDTAVYYCAAAQSKYSFYWGDYYYWGQGTQVTVSS | high polyreactivity
QVQLVESGGGLVQAGGSLRLSCAASGSTFDINTMGWYRQAPGKEREFVAAITDSDDSTYYADSVKGRFTISRDNAKNTVYLQMNSLKPEDTAVYYCNYDYWGQGTQVTVSS | low polyreactivity
QVQLVESGGGLVQAGGSLRLSCAASGIIFSSNAMGWYRQAPGKERELVAAISRRGGSTYYADSVKGRFTISRDNAKNTVYLQMNSLKPEDTAVYYCNALLYNGAGYDYWGQGTQVTVSS | high polyreactivity
QVQLVESGGGLVQAGGRLRLTCAASGFTFRYYAMGWYRQAPGKERELVATITRGGSTNYAESVKWRFTISRDNAKNTVYFQMNSLKPEDTAVYYCATGKIYWRGYEYWGQGTQVTVSS | high polyreactivity
QVQLVESGGGLVQAGGSLRLSCAASGRIFGLYAMGWYRQAPGKERELVAAINRTGNTNYADSVKGRFTISRDNAKNTVYLQMNSLKPEDTAVYYCAARFPYWRRYDYWGQGTQVTVSS | high polyreactivity
QVQLVESGGGLVQAGGSLRLSCAASGSIFGTYAMGWYRQALGKERELVASIRFNGRTFYADSVKGRFTISRDNAKNTVYLQMNSLKPEDTAVYYCAAQTWYGFPNYYWGQGTQVTVSS | high polyreactivity
QVQLVESGGGLVQAGGSLRLSCAASGIIFDSYAMGWYRQAPGKERELVAAISTSGGSTYYADSVKGRFTISRDNAKNTVYLQMNSLKPEDTEVYYCAARYAVSRYRFGFNYWGQGTQVTVSS | high polyreactivity
QVQLVESGGGLVQAGGSLRLSCAASGRTLYGYAMGWYRQAPGKEREFVAAISRSGGRTYYADSVKGRFTISRDNAKNTVYLQMNSLKPEDTAVYYCAARQYQAKQPYGYYPGYGYWGQGTQVTVSS | high polyreactivity
QVQLLESGAGLVQAGGSLRLSCAAYGSTSYDYAMGWYRQAPGKERELVAAISGSSSTTYYADSVKGRFTISRDNAKNTVYLQMNSLKPEDTAVYYCNAVTTSGYGYGYWGQGTQVTVSS | low polyreactivity
QVQLVESGGGLVQAGGSLRLSCAASGYTFRGYAMGWYRQAPGKEREFVAAINWSDGSTYYADSVKGRFTISRDNAKNTVYLQMNSLKPEDTAVYYCNADQYYRVPDNYWGQGTQVTVSS | low polyreactivity
QVQLVESGGGLVQAGGSLRLSCAASGSIFVYNAMGWYRQAPGKERELVASITWSGGRTYYADSVKGRFTISRDNAKNTVYLQMNSLKPEDTAVYYCAADSPRGYDYWGQGTQVTVSS | high polyreactivity
QVQLVESGGGLVQAGGSLRLSCAASGFIFYPYAMGWYRQAPGKERELVAAITGSGGSTYYADSVKGRFTISRDNAKNTVYLQMNSLKPEDTAVYYCAAYYGPRKMDYWGQGTQVTVSS | high polyreactivity
QVQLVESGGGLVQAGGSLRLSCAASGRTFVPYAMGWYRQAHGKERELVAAIDKSDGSTYYADSVKGRFTISRDNAKNTVYLKMNSLKPEDSAVYFCNAEGYTYRYYTIYNYCGQGTQVTVSS | high polyreactivity
QVQLVESGGGLVQAGGSLRLICAASGIIYYYYAMGWYRQAPGKERELVAAINFSVGGTYYADSVKGSFTNSRDNAKNSVYLQMNSQKPEDTAVYYCAKDIVIPATYVEYDYWGQGTQVTVSS | low polyreactivity
QVQLVESGGGLVQAGGSLRLSCAASGFIFRPYVMGWYRQAPGKERELVAAISRSGSSTYYADSVKGRFTISRDNAKNTVYLQMNSLKPEDTAVYYCNAVYYLYKGDYWGQGTQVTVSS | high polyreactivity
QVQLVESGGGLVQAGGSLRLSCAASGSTFYYYAMGCYRQAPGKERELVAAINSSGGNTYYADSVKGRFTISRDNAKNTVYLQMNCLKPEDTAVYYCATEYYWLQDYDYWGQGTQVTVSS | low polyreactivity
QVQLVESGGGLVQAGGRLRLSCAASGITFWSNALGWYRQAPGKERELVAAMTSGGNTNYADSVKGRFTISRDNAKNTVYLQMNSLKPEDTAVYYCATKQLLRRRQGYYWVGSKHDYWGQGTQVTVSS | high polyreactivity
QVQLVESGGGLVQAGGSLRLSCAASGFIFATYAMGWYRQAPGKERELVAAISRRGVRTNYADSVKGRFTISRDNAKNTVYLQMNSLKQEDTAVYYCNAQSHYGKIPMYYWGQGTQVTVSS | high polyreactivity
QVQLVESGGGLVQAGGSLRLSCAASGITLTNNAMGWSRHAPGKERELVAAITRSGGSTYYADSVKGRFTISRDNAKNTVYLLMNSLKPEVTAVYCAARWYSYSGSIRSYDYWGQGTQVTVSS | low polyreactivity
QVQLVESGGGLVQAGGSLRLSCAASGITFGYYAMGLYRQAPGKERELVAAISWSGGRTYYADSVKGRLTISRDNAKNTVYLQMNSLKPEDTAVYYCATRYPVRRGSGPSYDYWGQGTQVTVSS | high polyreactivity
QVQLVESAGGLVQAGGSLRLSCAASGRTFGWYAMGWYRQAPGKERELVAAITSSDDSTYYADSVKGRFTISRDNAKNTVYLQMNSLKPEDTEVYYCNKVKYFARSAYGYWGLGTQVTVSS | low polyreactivity
QVQHVESGGGLVQAGGSLRLSSAASGFIFILYAMGWYTQAPGKERELVAAISSCGTRTYYADSVKGRFTISRDNAKNTVYLQMISLKPEDTGVYYCNTAWRDYVARLGGVGYDYWGQGTQVTVSS | high polyreactivity
QVQLVESGGGLVQAGGSLRLSFAASGFTFQWYGMGWSRQAPGKERELVAAINYSGGSTYYADSVKGSFTLSRDNAKNTVYLQMNSLKPEDTAVYYCAAEFYSWPWLRLAPWSMDYWGQGTQVTVSS | high polyreactivity
QVQLVESGGGLVQAGGSLRLSCADSGSTFAGNAMGWYRQAPGKERELVAAIVSSTGSTYYADSVKGRFTISRDNAKNTVYLQMNSLKPEDTAVYYCNKTSFLVKLDYWGQGTQVTVSS | low polyreactivity
